Measurements from publication PMC11323482, “Role of the antiparallel double-stranded filament form of FtsA in activating the Escherichia coli divisome” (mBio, 2024).
Positions count from the first letter of the chain named. Numbers in names are those of the source.

B1: FtsA^M71A with Q155C (natural protein, E. coli, UniProt P0ABH0 1-420, looked up)
chain: MIKATDRKLVVGLEIGTAKVAALVGEVLPDGMVNIIGVGSCPSRGMDKGGVNDLESVVKCVQRAIDQAELAADCQISSVYLALSGKHISCQNEIGMVPISEEEVTQEDVENVVHTAKSVRVRDEHRVLHVIPQEYAIDYQEGIKNPVGLSGVRMCAKVHLITCHNDMAKNIVKAVERCGLKVDQLIFAGLASSYSVLTEDERELGVCVVDIGGGTMDIAVYTGGALRHTKVIPYAGNVVTSDIAYAFGTPPSDAEAIKVRHGCALGSIVGKDESVEVPSVGGRPPRSLQRQTLAEVIEPRYTELLNLVNEEILQLQEKLRQQGVKHHLAAGIVLTGGAAQIEGLAACAQRVFHTQVRIGAPLNITGLTDYAQEPYYSTAVGLLHYGKESHLNGEAEVEKRVTASVGSWIKRLNSWLRKEF
notes: FtsA, E. coli, M71A, measured by crosslinking at Q155C; M71A introduced into pWM7049 or pWM7239; source: E. coli, expressed from plasmid, in living cells
B2: FLAG-FtsA^Q155C (natural protein, E. coli, UniProt P0ABH0 1-420, looked up)
chain: B1 chain with A71M
notes: FtsA, E. coli, with the cysteine substitution Q155C; made by site-directed mutagenesis on pWM2785 (pDSW210-FLAG-FtsA); Native FtsA is also present in some strains; also called pDSW210-FLAG-FtsA^Q155C; source: E. coli, expressed from plasmid pDSW210 (IPTG), in living cells; not shown: FLAG, N-terminal, kept

Legend:
[1] = biological target: the molecule itself; test: cross-linking; in vivo site-specific cysteine crosslinking in E. coli cells with BMB or BMH (0.5 mM, 10 min, cold PBS), quenched with beta-mercaptoethanol; SDS-PAGE and immunoblot with anti-FtsA; dividing cells: ftsZ84(ts) strains 10 and 20 min after return to 30 °C, ftsQ1ts and zipA1ts at 30 °C, ftsA° strain at 30 or 42 °C, WM4952 at 37 °C, WM4953
[2] = biological target: the molecule itself; test: cross-linking; in vivo cysteine crosslinking in ftsQ1(ts) cells (WM7148) shifted to the nonpermissive 42 °C, compared with 30 °C; SDS-PAGE and anti-FtsA immunoblot
[3] = biological target: the molecule itself; test: cross-linking; in vivo cysteine crosslinking in zipA1(ts) cells (WM7149) shifted to the nonpermissive 42 °C, compared with 30 °C; SDS-PAGE and anti-FtsA immunoblot

| Protein | DS filament crosslinking at Q155C, percent of WT levels [1] [%] | fold decrease of the crosslinked band's intensity at 42 °C against 30 °C [2] [fold] | fold decrease of the crosslinked band's intensity at 42 °C against 30 °C [3] [fold] |
| --- | --- | --- | --- |
| B1 | ~35 | – | – |
| B2 | – | 3 | 7.5 |
